These results are taken from paper PMC3351183 (Nucleic Acids Research, 2012).

Series [1] deals with the molecule itself. The series can be described thus: SEC.
Series [2] deals with the molecule itself. The experiment in a line: crystal structure.

B1: GB1_HP0315 (HP0315, a VapD protein from Helicobacter pylori, fused with the immunoglobulin-binding domain of streptococcal protein G) (natural protein, Helicobacter pylori 26695)
chain: MYALAFDLKIEILKKEYGEPYNKAYDDLRQELELLGFEWTQGSVYVNYSKENTLAQVYKAINKLSQIEWFKKSVRDIRAFKVEDFSDFTEIVKS
With B1, the “stoichiometry N” value in series [1] was determined as 2.

B2: SeMet-substituted GB1_HP0315 (natural protein, Helicobacter pylori 26695)
chain: MYALAFDLKIEILKKEYGEPYNKAYDDLRQELELLGFEWTQGSVYVNYSKENTLAQVYKAINKLSQIEWFKKSVRDIRAFKVEDFSDFTEIVKS
modifications: selenomethionine in place of methionine (first methionine residue of GB1 and the methionine residue of HP0315)
As for B2, the binding result in series [2] is recorded as “binds”.
